In US11471462B2, “Compositions and methods for detecting and treating diabetes” (THE BROAD INSTITUTE, INC., priority 2016, dated 2022):

Test system: SLC16A11
Assay: SLC16A11 protein-protein interaction study (immunoprecipitation, quantitative mass spectrometry)
Design: species or system human
Details: putative SLC16A11^REF interaction partners; immunoprecipitation from HEK293T cells vs empty vector control; Blandt-Altman

B1: SLC25A3 (protein)
chain: AVEEYSCEFGSAKYYALCGFGGVLSCGLTHTAVVPLDLVKCRMQVDPQKYKGIFNGFSVTLKEDGVRGLAKGWAPTFLGYSMQGLCKFGFYEVFKVLYSNMLGEENTYLWRTSLYLAASASAEFFADIALAPMEAAKVRIQTQPGYANTLRDAAPKMYKEEGLKAFYKGVAPLWMRQIPYTMMKFACFERTVEALYKFVVPKPRSECSKPEQLVVTFVAGYIAGVFCAIVSHPADSVVSVLNKEKGSSASLVLKRLGFKGVWKGLFARIIMIGTLTALQWFIYDSVKVYFRLPRPPPPEMPESLKKKLGLTQ
  BA log fold change: 1.65
